PMC3727927 (Molecular Biology of the Cell, 2013)

Target: the molecule itself
Assay: light scattering

B1: Bacillus subtilis MreB A277Q K305D double mutant, Strep-tagged (natural protein)
chain: MFGIGARDLGIDLGTANTLVFVKGKGIVVREPSVVALQTDTKSIVAVGNDAKNMIGRTPGNVVALRPMKDGVIADYETTATMMKYYINQAIKNKGMFARKPYVMVCVPSGITAVEERAVIDATRQAGARDAYPIEEPFAAAIGANLPVWEPTGSMVVDIGGGTTEVAIISLGGIVTSQSIRVAGDEMDDAIINYIRKTYNLMIGDRTAEAIKMEIGSAEAPEESDNMEIRGRDLLTGLPKTIEITGKEISNALRDTVSTIVEAVKSTLEKTPPELAQDIMDRGIVLTGGGALLRNLDKVISEETDMPVLIAEDPLDCVAIGTGKALEHIHLFKGKTR
B1: binds.
